Assay results taken from PMC7954794, “Protein context shapes the specificity of SH3 domain-mediated interactions in vivo” (Nature Communications, 2021).

B1: SHO1 (protein, UniProt P40073 1-367, looked up)
High osmolarity signaling …: MSISSKIRPTPRKPSRMATDHSFKMKKFYADPFAISSISLAIVSWVIAIGGSISSASTNESFPRFTWWGIVYQFLIICSLMLFYCFDLVDHYRIFITTSIAVAFVYNTNSATNLVYADGPKKAAASAGVILLSIINLIWILYYGGDNASPTNRWIDSFSIKGIRPSPLENSLHRARRRGNRNTTPYQNNVYNDAIRDSGYATQFDGYPQQQPSHTNYVSSTALAGFENTQPNTSEAVNLHLNTLQQRINSASNAKETNDNSNNQTNTNIGNTFDTDFSNGNTETTMGDTLGLYSDIGDDNFIYKAKALYPYDADDDDAYEISFEQNEILQVSDIEGRWWKARRANGETGIIPSNYVQLIDGPEEMHR
B2: SDC25 (protein, UniProt P0CF34 1-1048, looked up)
Putative truncated guanine …: MPITSSPDLFYLNDCDVVYWYDLTRLVCHYVNLTERDLLANEREKFLTSLDLLTAQITYVYMLFRNLRLVEDSFKKTLKKLIYTLSRFSINANIWFHSTLFEEREAIASQKDPERRSPLLQSILGTFQKFHFLLRLLHFLSNPNELTILPQLTPRFFKDSFNTISWNNPFLRKRLNQHMSHDLPRQMIKAVAGASGIVAENIDEIPASKQGTSCSSETSHHSPSAPFQRRRRGTIFSNVSGSSDESDTIWSKRKKPYPLNEETLSLVRARKKQLDGKLKQMIKSANEYLSNTANFSKMLNFEMNFKTYEEVSGTIPIIDILENLDLTIFLNLRELGDENRVFDEDVAIDDEDEEFLKHSLSSLSYILSDYFNMKQYFHDVVVKFIIVAQHLTLEDPFVFSPMQNDLPTGYYEPMKPSSLNLDNAKDKKNGSQNTDIQEEEDEYEPDPDSLILFHNLINQDSDFNDLKFFNLAHVFKKSCDDYFDVLKLAIEFVNQLILERENLLNYAARMMKNNITELLLRGEEGYGSYDGGETAEKSDTNAVYADSDTKDNDEWRDSQVKLPRYLQREYDSELIWGSNNRIKGGSKHALISYLTDNEKKDLFFDITFLITFRSIFTTTEFLSYLISQYNLDPPEDLCFEEYNEWVTKKLIPVKCRVVEIMTTFFKQYWFLGYDEPDLATLNLDYFAQVAIKENITGSVELLKEVNQKFKHGNIQEATAPMKTLDQQICQDHYSGTLYSTTESILAVDPVLFATQLTILEHEIYCEITIFDCLQKIWKNKYTKSYGASPGLNEFISFANKLTNFISYSVVKEADKSKRAKLLSHFIFIAEYCRKFNNFSSMTAIISALYSSPIYRLEKTWQAVIPQTRDLLQSLNKLMDPKKNFINYRNELKSLHSAPCVPFFGVYLSDLTFTDSGNPDYLVLEHGLKGVHDEKKYINFNKRSRLVDILQEIIYFKKTHYDFTKDRTVIECISNSLENIPHIEKQYQLSLIIEPKPRKKVVPNSNSNNKSQEKSRDDQTDEGKTSTKKDRFPKFQLHKTKKKAPKVSK

System: Abp1 PPIs
Test: DHFR-PCA of Abp1 SH3-swapped baits (Fig. 2B-D, S2C, S2F);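 on Protein-protein interaction distance between Abp1 SH3-swapped baits, to ABP1: Euclidean distance between DHFR-PCA score profiles of the baits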;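 on Protein-protein interaction distance between Abp1 SH3-swapped baits, to BEM1-2: Euclidean distance between DHFR-PCA score profiles of the baits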;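 on Protein-protein interaction distance between Abp1 SH3-swapped baits, to BOI1: Euclidean distance between DHFR-PCA score profiles of the baits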;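 on Protein-protein interaction distance between Abp1 SH3-swapped baits, to BZZ1-1: Euclidean distance between DHFR-PCA score profiles of the baits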
Type: cell-based, Saccharomyces cerevisiae
Details: for Protein-protein interaction distance between Abp1 SH3-swapped baits, to ABP1: Abp1 bait with swapped SH3, distance to bait with ABP1 SH3; for Protein-protein interaction distance between Abp1 SH3-swapped baits, to ABP1 / Protein-protein interaction distance between Abp1 SH3-swapped baits, to BBC1 / Protein-protein interaction distance between Abp1 SH3-swapped baits, to BEM1-1 / Protein-protein interaction distance between Abp1 SH3-swapped baits, to BEM1-2 / Protein-protein interaction distance between Abp1 SH3-swapped baits, to BOI1 / Protein-protein interaction distance between Abp1 SH3-swapped baits, to BOI2 / Protein-protein interaction distance between Abp1 SH3-swapped baits, to BUD14 / Protein-protein interaction distance between Abp1 SH3-swapped baits, to BZZ1-1 / Protein-protein interaction distance between Abp1 SH3-swapped baits, to BZZ1-2 / Protein-protein interaction distance between Abp1 SH3-swapped baits, to CDC25 / Protein-protein interaction distance between Abp1 SH3-swapped baits, to CTTN / Protein-protein interaction distance between Abp1 SH3-swapped baits, to CYK3 / Protein-protein interaction distance between Abp1 SH3-swapped baits, to DBNL / Protein-protein interaction distance between Abp1 SH3-swapped baits, to FUS1 / Protein-protein interaction distance between Abp1 SH3-swapped baits, to HCLS1 / Protein-protein interaction distance between Abp1 SH3-swapped baits, to HOF1 / Protein-protein interaction distance between Abp1 SH3-swapped baits, to HSE1 / Protein-protein interaction distance between Abp1 SH3-swapped baits, to LSB1 / Protein-protein interaction distance between Abp1 SH3-swapped baits, to LSB3 / Protein-protein interaction distance between Abp1 SH3-swapped baits, to MYO3 / Protein-protein interaction distance between Abp1 SH3-swapped baits, to MYO5 / Protein-protein interaction distance between Abp1 SH3-swapped baits, to NBP2 / Protein-protein interaction distance between Abp1 SH3-swapped baits, to PEX13 / Protein-protein interaction distance between Abp1 SH3-swapped baits, to PIN3 / Protein-protein interaction distance between Abp1 SH3-swapped baits, to RVS167 / Protein-protein interaction distance between Abp1 SH3-swapped baits, to SDC25 / Protein-protein interaction distance between Abp1 SH3-swapped baits, to SHO1 / Protein-protein interaction distance between Abp1 SH3-swapped baits, to SLA1-1 / Protein-protein interaction distance between Abp1 SH3-swapped baits, to SLA1-2 / Protein-protein interaction distance between Abp1 SH3-swapped baits, to SLA1-3 / Protein-protein interaction distance between Abp1 SH3-swapped baits, to YSC84: sheet Fig2C; for Protein-protein interaction distance between Abp1 SH3-swapped baits, to BBC1: distance to Abp1 bait with BBC1 SH3; for Protein-protein interaction distance between Abp1 SH3-swapped baits, to BEM1-1: distance to Abp1 bait with BEM1-1 SH3; for Protein-protein interaction distance between Abp1 SH3-swapped baits, to BEM1-2: distance to Abp1 bait with BEM1-2 SH3; for Protein-protein interaction distance between Abp1 SH3-swapped baits, to BOI1: distance to Abp1 bait with BOI1 SH3; for Protein-protein interaction distance between Abp1 SH3-swapped baits, to BOI2: distance to Abp1 bait with BOI2 SH3; for Protein-protein interaction distance between Abp1 SH3-swapped baits, to BUD14: distance to Abp1 bait with BUD14 SH3; for Protein-protein interaction distance between Abp1 SH3-swapped baits, to BZZ1-1: distance to Abp1 bait with BZZ1-1 SH3; for Protein-protein interaction distance between Abp1 SH3-swapped baits, to BZZ1-2: distance to Abp1 bait with BZZ1-2 SH3; for Protein-protein interaction distance between Abp1 SH3-swapped baits, to CDC25: distance to Abp1 bait with CDC25 SH3; for Protein-protein interaction distance between Abp1 SH3-swapped baits, to CTTN: distance to Abp1 bait with CTTN SH3; for Protein-protein interaction distance between Abp1 SH3-swapped baits, to CYK3: distance to Abp1 bait with CYK3 SH3; for Protein-protein interaction distance between Abp1 SH3-swapped baits, to DBNL: distance to Abp1 bait with DBNL SH3; for Protein-protein interaction distance between Abp1 SH3-swapped baits, to FUS1: distance to Abp1 bait with FUS1 SH3; for Protein-protein interaction distance between Abp1 SH3-swapped baits, to HCLS1: distance to Abp1 bait with HCLS1 SH3; for Protein-protein interaction distance between Abp1 SH3-swapped baits, to HOF1: distance to Abp1 bait with HOF1 SH3; for Protein-protein interaction distance between Abp1 SH3-swapped baits, to HSE1: distance to Abp1 bait with HSE1 SH3; for Protein-protein interaction distance between Abp1 SH3-swapped baits, to LSB1: distance to Abp1 bait with LSB1 SH3; for Protein-protein interaction distance between Abp1 SH3-swapped baits, to LSB3: distance to Abp1 bait with LSB3 SH3; for Protein-protein interaction distance between Abp1 SH3-swapped baits, to MYO3: distance to Abp1 bait with MYO3 SH3; for Protein-protein interaction distance between Abp1 SH3-swapped baits, to MYO5: distance to Abp1 bait with MYO5 SH3; for Protein-protein interaction distance between Abp1 SH3-swapped baits, to NBP2: distance to Abp1 bait with NBP2 SH3; for Protein-protein interaction distance between Abp1 SH3-swapped baits, to PEX13: distance to Abp1 bait with PEX13 SH3; for Protein-protein interaction distance between Abp1 SH3-swapped baits, to PIN3: distance to Abp1 bait with PIN3 SH3; for Protein-protein interaction distance between Abp1 SH3-swapped baits, to RVS167: distance to Abp1 bait with RVS167 SH3; for Protein-protein interaction distance between Abp1 SH3-swapped baits, to SDC25: distance to Abp1 bait with SDC25 SH3; for Protein-protein interaction distance between Abp1 SH3-swapped baits, to SHO1: distance to Abp1 bait with SHO1 SH3; for Protein-protein interaction distance between Abp1 SH3-swapped baits, to SLA1-1: distance to Abp1 bait with SLA1-1 SH3; for Protein-protein interaction distance between Abp1 SH3-swapped baits, to SLA1-2: distance to Abp1 bait with SLA1-2 SH3; for Protein-protein interaction distance between Abp1 SH3-swapped baits, to SLA1-3: distance to Abp1 bait with SLA1-3 SH3; for Protein-protein interaction distance between Abp1 SH3-swapped baits, to YSC84: distance to Abp1 bait with YSC84 SH3
Outline: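 Interactions were scored by DHFR protein-fragment complementation. DHFR F[1,2]-tagged Abp1 strains, whose SH3 was swapped for yeast or human ortholog domains, were crossed on YPD at 30 °C for 48 h with a 1536-format array of 575 prey-DHFR F[3] strains and 40 negatives, giving four replicates per pair. PCA selection lasted 4 days after double diploid selection.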

[1] = number of PPIs, difference, Abp1 SH3-swapped with the listed SH3, Fig2D,S2F

Molecule | Protein-protein interaction distance between Abp1 SH3-swapped baits, to ABP1 | Protein-protein interaction distance between Abp1 SH3-swapped baits, to BBC1 | Protein-protein interaction distance between Abp1 SH3-swapped baits, to BEM1-1 | Protein-protein interaction distance between Abp1 SH3-swapped baits, to BEM1-2 | Protein-protein interaction distance between Abp1 SH3-swapped baits, to BOI1 | Protein-protein interaction distance between Abp1 SH3-swapped baits, to BOI2 | Protein-protein interaction distance between Abp1 SH3-swapped baits, to BUD14 | Protein-protein interaction distance between Abp1 SH3-swapped baits, to BZZ1-1 | Protein-protein interaction distance between Abp1 SH3-swapped baits, to BZZ1-2 | Protein-protein interaction distance between Abp1 SH3-swapped baits, to CDC25 | Protein-protein interaction distance between Abp1 SH3-swapped baits, to CTTN | Protein-protein interaction distance between Abp1 SH3-swapped baits, to CYK3 | Protein-protein interaction distance between Abp1 SH3-swapped baits, to DBNL | Protein-protein interaction distance between Abp1 SH3-swapped baits, to FUS1 | Protein-protein interaction distance between Abp1 SH3-swapped baits, to HCLS1 | Protein-protein interaction distance between Abp1 SH3-swapped baits, to HOF1 | Protein-protein interaction distance between Abp1 SH3-swapped baits, to HSE1 | Protein-protein interaction distance between Abp1 SH3-swapped baits, to LSB1 | Protein-protein interaction distance between Abp1 SH3-swapped baits, to LSB3 | Protein-protein interaction distance between Abp1 SH3-swapped baits, to MYO3 | further results
B1 | 8.989 | 7.412 | 10.91 | 30.43 | 8.152 | 11.77 | 14.66 | 4.878 | 7.862 | 24.02 | 9.013 | 24.75 | 4.441 | 16.07 | 8.302 | 29.05 | 5.64 | 11.57 | 11.76 | 10.66 | Protein-protein interaction distance between Abp1 SH3-swapped baits, to MYO5: 10.26; Protein-protein interaction distance between Abp1 SH3-swapped baits, to NBP2: 13.02; Protein-protein interaction distance between Abp1 SH3-swapped baits, to PEX13: 8.672; Protein-protein interaction distance between Abp1 SH3-swapped baits, to PIN3: 9.004; Protein-protein interaction distance between Abp1 SH3-swapped baits, to RVS167: 6.815; Protein-protein interaction distance between Abp1 SH3-swapped baits, to SDC25: 31.28; Protein-protein interaction distance between Abp1 SH3-swapped baits, to SHO1: 0.00; Protein-protein interaction distance between Abp1 SH3-swapped baits, to SLA1-1: 26.8; Protein-protein interaction distance between Abp1 SH3-swapped baits, to SLA1-2: 16.55; Protein-protein interaction distance between Abp1 SH3-swapped baits, to SLA1-3: 11.51; Protein-protein interaction distance between Abp1 SH3-swapped baits, to YSC84: 12.33; PPIs gained by Abp1 - SH3-dependent PPIs gained by Abp1 [1]: 3; SH3-dependent PPIs - SH3-dependent PPIs gained by Abp1 [1]: 1; SH3-dependent PPIs gained by Abp1 (number of PPIs, Abp1 SH3-swapped with the listed SH3, DHFR-PCA, Fig2D,S2F): 1
B2 | 33.14 | 31.85 | 25.75 | 6.672 | 29.16 | 28.39 | 24.65 | 32.5 | 29.97 | 14.8 | 27.81 | 15.21 | 31.69 | 24.28 | 34.87 | 7.905 | 31.59 | 37.12 | 36.63 | 35.91 | Protein-protein interaction distance between Abp1 SH3-swapped baits, to MYO5: 35.29; Protein-protein interaction distance between Abp1 SH3-swapped baits, to NBP2: 24.44; Protein-protein interaction distance between Abp1 SH3-swapped baits, to PEX13: 35.86; Protein-protein interaction distance between Abp1 SH3-swapped baits, to PIN3: 34.35; Protein-protein interaction distance between Abp1 SH3-swapped baits, to RVS167: 34.37; Protein-protein interaction distance between Abp1 SH3-swapped baits, to SDC25: 0.00; Protein-protein interaction distance between Abp1 SH3-swapped baits, to SHO1: 31.28; Protein-protein interaction distance between Abp1 SH3-swapped baits, to SLA1-1: 14.07; Protein-protein interaction distance between Abp1 SH3-swapped baits, to SLA1-2: 23.99; Protein-protein interaction distance between Abp1 SH3-swapped baits, to SLA1-3: 37.49; Protein-protein interaction distance between Abp1 SH3-swapped baits, to YSC84: 36.86
